Results reported in the supplement of paper PMC10567573.

B1: ZNF263 (parent)
chain: PEASHLRFRRFRFQEAAGPREALS
B2: LOXL2 (parent)
chain: FSPDGPSRFRKAYKPEQPLVRLRG

Variants of: B1
Assay: protein stability index of a GFP-peptide fusion (GPS, HEK-293T) (PSI 1-6); higher = more stable
Details: c terminus: a fixed tail appended
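Further: lentivirally expressed fusions sorted by FACS into six bins by GFP to DsRed ratio, PSI derived from sequencing read proportions per bin multiplied by bin number.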

Protein stability index: each site, then its substitutions
Q14: Y 2.26 | A 1.81 | C 1.89 | N 3 | I 1.78 | M 2.93 | L 3.22 | H 1.16 | T 2.88 | V 2.5 | W 2.87 | P 3.29 | K 3.34 | S 2.87 | G 3.68 | E 3.23 | D 4.9 | R 2.59
S24: R 2.69 | G 2.3 | F 2.07 | E 2.79 | W 2.37 | I 2.52 | K 2.76 | Q 2.49 | H 2.68 | D 3.06 | M 2.19 | T 2.22 | N 3.28 | L 2.65 | Y 2.37 | V 2.2 | P 2.57 | C 2.42 | A 2.28
A17: P 2.55 | G 2.58 | N 2.78 | D 3.42 | S 2.54 | M 2.1 | I 2.15 | R 2.15 | W 2.69 | V 2.55 | Q 2.75 | H 2.33 | F 1.88 | Y 2.04 | T 2.61 | E 3.34 | C 2.14 | K 2.94 | L 2.21
A16: T 2.11 | I 2.85 | Y 2.1 | D 2.99 | C 2.19 | L 2.57 | F 1.59 | H 3 | E 2.36 | R 2.88 | P 3.25 | W 2.65 | S 3.54 | M 2.15 | K 2.61 | V 2.31 | G 2.43 | N 2.69
G18: E 3.44 | I 2.35 | T 2.97 | L 2.21 | H 2.98 | R 2.65 | K 2.84 | P 3.36 | F 2.26 | W 1.88 | V 2.38 | C 2.67 | M 2.7 | N 2.83 | D 2.64 | Q 2.81 | Y 2.14 | A 2.27 | S 2.96
E15: Y 2.05 | G 2.24 | L 2.02 | K 2.04 | R 1.98 | D 2.09 | W 2.15 | T 2.74 | H 2.04 | C 2.31 | A 2.73 | I 1.78 | F 1.53 | M 2.38 | P 2.32 | N 2.68 | S 2.54 | V 2.12
L23: G 3.04 | D 3.75 | M 2.45 | Y 1.71 | T 2.84 | V 2.93 | I 2.48 | C 2.7 | N 3.15 | R 3.11 | H 3.05 | Q 2.97 | P 2.9 | A 3.44 | F 2.58 | W 1.91 | E 3.5 | S 3.28 | K 3.35
R20: Q 2.7 | H 2.4 | G 2.25 | T 2.65 | L 2.29 | E 3.35 | W 1.49 | V 2.65 | A 3.17 | M 2.21 | S 2.58 | K 2.38 | N 2.99 | Y 1.49 | F 1.62 | P 2.24 | D 2.9 | C 2.21 | I 2.48
A22: S 2.77 | L 2.51 | G 2.98 | P 3.7 | I 2.28 | V 2.15 | C 2.65 | N 2.87 | Y 2.29 | D 3.38 | T 2.74 | F 2.6 | Q 2.78 | M 2.37 | H 2.57 | K 2.77 | R 2.8 | E 3.15 | W 2.03
F13: W 3.58 | Y 2.3
P19: M 2.8 | R 2.71 | D 2.8 | V 2.21 | I 2.04 | G 3.11 | E 3.39 | A 2.71 | T 3.26 | H 2.73 | L 1.95 | Q 3.18 | C 2.21 | F 1.76 | W 2.04 | K 2.73 | Y 1.69 | S 2.87 | N 2.63
E21: W 2.01 | G 2.4 | F 2.34 | D 2.54 | A 2.56 | C 2.14 | Q 3.03 | K 2.45 | L 2.41 | I 2.04 | N 2.71 | P 2.89 | T 2.66 | R 2.87 | V 1.85 | S 2.74 | M 2.98 | H 2.84 | Y 2.58

Variants of: B2
Assay: as above
Details: c terminus: a fixed tail appended

Protein stability index: each site, then its substitutions
P6: D 1.63 | N 1.8 | M 1.56 | A 2.22 | Q 2.16 | I 2.52 | T 1.88 | L 3.07 | K 1.98 | E 2 | Y 2.16 | G 1.54 | H 3.98
D4: E 2.44 | T 2.01 | G 1.98 | F 1.66 | Q 2.57 | H 1.41 | S 1.52 | M 1.71 | W 2.58 | Y 2.82 | A 1.62 | K 1.97 | V 2.38 | P 1.07 | C 2.21 | I 1.71 | N 1.73 | L 1.78
F1: D 3.9 | Q 3.85 | W 3.12 | T 3.33 | V 3.65 | P 4.03 | N 3.98 | C 3.23 | M 2.95 | L 4.19 | S 3.92 | I 2.95 | R 4.12 | A 2.9 | E 3.56 | H 3.79 | K 3.11 | Y 1.83 | G 3.2
P3: Y 2.13 | H 1.9 | M 2.33 | D 2 | R 2.12 | E 1.97 | V 2.6 | K 1.71 | T 2.21 | Q 2.17 | I 2.26 | L 1.96 | W 1.66 | S 2.31 | C 1.97 | A 1.79 | F 2.41 | N 1.73
G5: C 2.03 | R 1.74 | K 2.17 | H 2.65 | I 2.51 | T 1.92 | N 2.66 | F 2.33 | E 2.35 | Q 2.33 | D 1.62 | L 2.02 | M 1.69 | V 1.59 | S 2.38 | A 1.47 | P 2.21 | Y 1.83
R8: A 2.89 | D 2.31 | G 2.02 | F 2.75 | H 2.23 | E 1.81
S2: K 3.23 | R 2.96 | T 3.36 | H 2.68 | N 2.01 | M 2.37 | G 2.11 | P 1.97 | V 2.07 | D 3.05 | F 2.48 | E 3.62 | W 1.84 | Q 1.22 | L 1.92 | Y 2.36
S7: T 1.49 | G 2.2 | P 2.18 | V 1.64 | I 2.58 | D 1.69 | N 2.89 | H 2.54 | E 2.01 | C 3.07 | R 2.05 | K 1.94 | F 2.09 | Y 2.62 | Q 2.32 | M 1.96 | L 4 | A 1
